Source: the supplement of paper PMC6757056
± gives the standard deviation of the averaged measurements.

B1: library; a variant is named by its letters at N, in order (parent)
chain: GCUGUCACCGGUGUAUUACCCUAGUGGUCGACCGGUCUGAUGAGUCUNNNNNNAGACGAAACAGC

Assays:
hypoxanthine [1] = variants of: B1; assay: normalized RNA/DNA level with ligand (relative to sTRSVctl = 100) (log10 (% of sTRSVctl)); ligand: hypoxanthine (xanthine aptamer); higher = less ribozyme self-cleavage, higher mRNA level; conditions: ligand concentration (+) RNA-Seq: 5 mM, HEK293T, reporter: mCherry (pCS4076), ligand present: yes
Outline: (§1)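 HEK293T cells were transfected with library plasmids carrying ribozyme switches linked to an mCherry reporter, or an eGFP reporter in some ligand experiments, at 4 µg per well of a 6-well plate, with any ligand added 1 h beforehand. After 72 h, total RNA was extracted with EDTA, reverse-transcribed, amplified, barcoded and sequenced. RNA level was defined as RNA reads over DNA reads, normalized to a spiked-in non-cleaving sequence or to the top-ranked sequences. That value was multiplied by 100 and converted to log10, the top set was 25 sequences, and only sequences with ≥100 DNA reads were retained.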

hypoxanthine [2] = variants of: B1; assay: normalized RNA/DNA level without ligand (relative to sTRSVctl = 100) (log10 (% of sTRSVctl)); ligand: hypoxanthine (xanthine aptamer); higher = less ribozyme self-cleavage, higher mRNA level; conditions: HEK293T, reporter: mCherry (pCS4076), ligand present: no
Outline: as §1

| Variant | normalized RNA/DNA level with ligand (log10) (hypoxanthine [1]) | normalized RNA/DNA level without ligand (log10) (hypoxanthine [2]) |
| --- | --- | --- |
| CUAGUA | 1.918 ± 0.0099 | 1.8 ± 0.049 |
| CUAGUU | 1.919 ± 0.0027 | 1.9151 ± 0.00062 |
| GGUGGG | 1.9 ± 0.028 | 1.47 ± 0.056 |
| GGUGGU | 1.96 ± 0.084 | 1.86 ± 0.061 |
| CGUCUU | 2.01 ± 0.035 | 1.958 ± 0.018 |
| CGUCUC | 2 ± 0.023 | 2.03 ± 0.017 |
| CGUCUG | 1.95 ± 0.11 | 1.957 ± 0.013 |
| CGUCUA | 1.93 ± 0.025 | 1.87 ± 0.029 |
| UGUCCG | 1.925 ± 0.0047 | 1.8 ± 0.017 |
| CUAAUA | 1.87 ± 0.029 | 1.79 ± 0.026 |
| CUAAUU | 1.94 ± 0.043 | 1.869 ± 0.006 |
| AUAAUC | 1.939 ± 0.0048 | 1.884 ± 0.0055 |
| UGUCUC | 1.999 ± 0.0092 | 2.013 ± 0.019 |
| UGUCUG | 1.93 ± 0.037 | 1.77 ± 0.03 |
| UGUCUU | 2.01 ± 0.033 | 1.907 ± 0.0099 |
| AGUCUU | 1.96 ± 0.04 | 1.89 ± 0.036 |
| AGUCUA | 1.924 ± 0.0097 | 1.836 ± 0.0084 |
| AGUCUC | 1.94 ± 0.037 | 1.89 ± 0.026 |
| GGUUCC | 1.99 ± 0.081 | 1.95 ± 0.022 |
| GGUUCG | 1.92 ± 0.063 | 1.69 ± 0.051 |
| GGUUCU | 1.977 ± 0.018 | 1.9 ± 0.022 |
| GGUUCA | 1.916 ± 0.0031 | 1.89 ± 0.046 |
| AGUGUU | 1.96 ± 0.031 | 1.81 ± 0.027 |

| Variant | normalized RNA/DNA level with ligand (log10) (hypoxanthine [1]) | normalized RNA/DNA level without ligand (log10) (hypoxanthine [2]) |
| --- | --- | --- |
| AGUGUC | 1.98 ± 0.11 | 1.88 ± 0.02 |
| UGUGGU | 1.89 ± 0.037 | 1.68 ± 0.017 |
| UGUGGC | 1.99 ± 0.04 | 1.8784 ± 0.00098 |
| UGUGGG | 1.93 ± 0.014 | 1.64 ± 0.035 |
| UUAACU | 1.932 ± 0.017 | 1.841 ± 0.012 |
| UUAACC | 1.941 ± 0.0056 | 1.921 ± 0.0067 |
| UUAACA | 1.93 ± 0.059 | 1.9 ± 0.0046 |
| AGUUGU | 1.93 ± 0.043 | 1.63 ± 0.076 |
| AGUUGA | 1.915 ± 0.0047 | 1.63 ± 0.032 |
| AGUCCG | 1.9 ± 0.09 | 1.528 ± 0.0051 |
| UUACUC | 1.995 ± 0.0094 | 2.02 ± 0.038 |
| UUACUA | 1.93 ± 0.039 | 1.887 ± 0.011 |
| UUACUU | 1.93 ± 0.025 | 1.93 ± 0.043 |
| CGUUAC | 1.91 ± 0.082 | 1.717 ± 0.0087 |
| CGUUAG | 1.944 ± 0.01 | 1.77 ± 0.17 |
| CGUUAU | 1.916 ± 0.006 | 1.753 ± 0.011 |
| AGUCGC | 1.945 ± 0.016 | 1.814 ± 0.016 |
| GGUGCA | 1.92 ± 0.043 | 1.88 ± 0.05 |
| CUAAAG | 1.92 ± 0.051 | 1.67 ± 0.013 |
| CUAAAU | 1.883 ± 0.01 | 1.82 ± 0.03 |
| CUAAAA | 1.88 ± 0.032 | 1.813 ± 0.0042 |
| UUAGGU | 1.92 ± 0.028 | 1.8 ± 0.031 |
| UUAGGA | 1.857 ± 0.012 | 1.66 ± 0.032 |

| Variant | normalized RNA/DNA level with ligand (log10) (hypoxanthine [1]) | normalized RNA/DNA level without ligand (log10) (hypoxanthine [2]) |
| --- | --- | --- |
| CGUGUA | 1.93 ± 0.024 | 1.68 ± 0.042 |
| CGUGUG | 1.903 ± 0.015 | 1.75 ± 0.08 |
| CGUGUU | 1.97 ± 0.054 | 1.89 ± 0.071 |
| CGUGUC | 1.947 ± 0.015 | 1.94 ± 0.039 |
| AUAGAG | 1.81 ± 0.037 | 1.31 ± 0.019 |
| AUAGAU | 1.91 ± 0.063 | 1.7097 ± 0.00076 |
| CGUUGA | 1.96 ± 0.024 | 1.834 ± 0.014 |
| CGUUGU | 1.98 ± 0.05 | 1.89 ± 0.059 |
| CGUUGC | 1.96 ± 0.1 | 1.91 ± 0.088 |
| AGUGAC | 1.912 ± 0.019 | 1.814 ± 0.012 |
| AGUGAA | 1.9 ± 0.025 | 1.66 ± 0.059 |
| AGUGAG | 1.79 ± 0.029 | 1.28 ± 0.096 |
| AGUUUG | 1.89 ± 0.077 | 1.55 ± 0.035 |
| AGUUUC | 1.92 ± 0.033 | 1.93 ± 0.033 |
| AGUUUU | 1.97 ± 0.077 | 1.947 ± 0.013 |
| AGUUCU | 1.8964 ± 0.00099 | 1.86 ± 0.056 |
| AGUUCG | 1.857 ± 0.017 | 1.43 ± 0.021 |
| AGUUCC | 1.922 ± 0.0092 | 1.886 ± 0.0063 |
| GGUUGA | 1.94 ± 0.046 | 1.64 ± 0.021 |
| GGUUGU | 1.94 ± 0.065 | 1.76 ± 0.035 |
| CGUGAU | 1.9 ± 0.032 | 1.73 ± 0.024 |
| CGUGAG | 1.85 ± 0.082 | 1.75 ± 0.011 |
| CGUGAC | 1.916 ± 0.0084 | 1.79 ± 0.04 |

| Variant | normalized RNA/DNA level with ligand (log10) (hypoxanthine [1]) | normalized RNA/DNA level without ligand (log10) (hypoxanthine [2]) |
| --- | --- | --- |
| CGUCGC | 1.9 ± 0.11 | 1.909 ± 0.01 |
| CGUCGG | 1.9 ± 0.026 | 1.57 ± 0.035 |
| CGUCGU | 2.05 ± 0.051 | 1.98 ± 0.036 |
| CGUCGA | 1.914 ± 0.011 | 1.85 ± 0.052 |
| AGUGGU | 1.898 ± 0.015 | 1.55 ± 0.056 |
| AGUGGG | 1.89 ± 0.076 | 1.543 ± 0.007 |
| CUACAG | 1.91 ± 0.028 | 1.73 ± 0.039 |
| CUACAC | 1.91 ± 0.026 | 1.77 ± 0.029 |
| CUACAU | 1.95 ± 0.075 | 1.7979 ± 0.00079 |
| UUACCC | 1.973 ± 0.0071 | 1.93 ± 0.064 |
| UUACCU | 1.99 ± 0.053 | 1.88 ± 0.029 |
| UUACCA | 1.95 ± 0.038 | 1.871 ± 0.008 |
| GUACAC | 1.919 ± 0.0031 | 1.79 ± 0.041 |
| GUACAU | 1.9 ± 0.034 | 1.77 ± 0.056 |
| AUACUU | 1.92 ± 0.022 | 1.859 ± 0.0037 |
| AUACUC | 1.93 ± 0.05 | 1.96 ± 0.071 |
| CUAGCU | 1.987 ± 0.0096 | 1.93 ± 0.042 |
| CUAGCC | 1.95 ± 0.037 | 1.86 ± 0.064 |
| CUAGCG | 1.91 ± 0.068 | 1.824 ± 0.0032 |
| AUAUCA | 1.936 ± 0.0032 | 1.81 ± 0.021 |
| AUAGUU | 1.9009 ± 0.0014 | 1.84 ± 0.055 |
| AUAGUC | 1.931 ± 0.016 | 1.923 ± 0.019 |
| UUAGCC | 1.95 ± 0.065 | 1.88 ± 0.025 |

| Variant | normalized RNA/DNA level with ligand (log10) (hypoxanthine [1]) | normalized RNA/DNA level without ligand (log10) (hypoxanthine [2]) |
| --- | --- | --- |
| UUAGCG | 1.906 ± 0.018 | 1.8 ± 0.038 |
| UUAGCA | 1.95 ± 0.025 | 1.85 ± 0.025 |
| UUAGCU | 1.97 ± 0.021 | 1.89 ± 0.023 |
| GGUCGG | 1.87 ± 0.031 | 1.65 ± 0.021 |
| GGUCGA | 1.954 ± 0.0067 | 1.82 ± 0.067 |
| GGUCGC | 1.97 ± 0.029 | 1.74 ± 0.04 |
| GGUCGU | 1.99 ± 0.08 | 1.98 ± 0.092 |
| UUACAA | 1.96 ± 0.022 | 1.796 ± 0.012 |
| UUACAG | 1.92 ± 0.029 | 1.63 ± 0.036 |
| UUAGAG | 1.832 ± 0.0063 | 1.556 ± 0.011 |
| UUAGAC | 1.9 ± 0.083 | 1.82 ± 0.022 |
| UUAGAU | 1.9278 ± 0.00084 | 1.766 ± 0.0096 |
| UGUCGC | 1.9324 ± 0.0018 | 1.89 ± 0.1 |
| UGUCGA | 1.9 ± 0.061 | 1.65 ± 0.049 |
| UGUGAG | 1.894 ± 0.015 | 1.588 ± 0.011 |
| UGUGAA | 1.908 ± 0.012 | 1.76 ± 0.025 |
| UGUGAU | 1.9 ± 0.026 | 1.77 ± 0.023 |
| UUACGC | 1.94 ± 0.029 | 1.81 ± 0.054 |
| UUACGA | 1.923 ± 0.01 | 1.89 ± 0.022 |
| UUACGG | 1.94 ± 0.04 | 1.85 ± 0.029 |
| AGUUAU | 1.89 ± 0.057 | 1.8 ± 0.068 |
| CGUCCU | 2.02 ± 0.035 | 2.02 ± 0.048 |
| GUAAUA | 1.878 ± 0.0069 | 1.823 ± 0.0023 |
